Assay: soluble on expression in E. coli; label from the status in PepcDB or PDB records

Sequence	soluble on expression in E. coli
MEIRYAKEEEIESIKDIWSYCFNDTESFMKYYFNDKYKSENTVVALDEGKIISSLQLNQYKLLLNSKVYNTSYVVGVSTLPEGRGAGYMNKVMKFTLNELYKKGQLVSILMPIDYRLYRRFGYEHCYDQIEYTINTDDLKNFKSSGKMIKSNLSQIDDLIQIDRTFLNEVNGNVLKDEHYYENLFKEIQSEDGFLYIHEGNEKDGYIVYFLQEDKMFVRELFYKNIDALKSMLKFIYNHNTQCKIVTISTPTIDKIRFILDNPKDSDIKIKPFMMGRVINVKKFIEDIDIENDINSSFNLLIEDKFIDENNGLFKISIQNKKVSVEQLDKKGAEKPQEDFDIKLDINTLTQLSFSYIDVNEAIFLNDIKDVSEETLETLNCIFSKKNNYINEYI	not soluble
MEITLNSGFKMPIIGLGVWRMEKEELRDLIIDAIKIGYRHLDCAANYKNEAEVGEALTEAFTTGLVKREDLFITTKLWSSDHGHVIEACKDSLKKLQLDYLDLFLVHIPIATKHTGIGTTDSALGDDGVLDIDTTISLETTWHDMEKLVSMGLVRSIGISNYDVFLTRDCLAYSKIKPAVNQIETHPYFQRDSLVKFCQKHGICVTAHTPLGGATANAEWFGTVSCLDDPVLKDVAEKYKQTVAQIVLRWGIQRNTVVIPKTSKPERLEENFQVFDFQLSKEDMEVIKSMERNYRTHQTAKFWGIELYA	soluble
MEKELDLSQYSVRTDLAVEAKDIALENQPKPNNQSEIKGVIVKEKEEQGVKISMVEITEEGAEAIGKKKGRYVTLESVGIREQDTEKQEEAMEEVFAKELNFFIKSLNIPDDASCLVVGLGNLSVTPDALGPKAVDNLLITRHLFELQPESVQDGFRPVSAIVPGVMGMTGIETSDIIFGVVKKVNPDFIIAIDALAARSIERVNATIQISDSGIHPGSGVGNKRKEISYETLGIPVIAIGIPTVVDAVSITSDTIDFILKHFGREMKEQGKPSKSLLPSGMTFGEKKKLTEDDLPNEEQRQTYLGMIGTLPDEEKRRLIHEVLAPLGHNLMVTPKEVDMFIEDMANVVAGGLNAALHHEVDQENFGAYTH	soluble
MEKELKALTKRLQQYNEQLLLIARRARERNEEPDFFGDVKPMAEEVQAVAERWKDAASRWVRHARPKYVHERQIEAAADHMAKLCVEAFYPSVPERRIKQYSQAVAYTLALVKERLDDTSEAGKERL	not soluble
MEKELVFAGFGGQGVLTLGLIVAESALELGKQVTWMPAYGPTMRGGKAYSVVKFSDESIGGPDMEEIDVLVAMNKPSLDYINLVKEGGTVVINTSAIDENVTLREDISVVKINCQELAQKVNNPK	not soluble
MEKETKEKIEKTVIEILSESDMKEITEFKVRKLASEKLAIDLSEKSHKAFVRSVVEKFLDEERAREYENSQVNKEEEDGDKDCGKGNKEFDDDGDLIICRLSDKRRVTIQEFKGKSLVSIREYYKKDGKELPTSKGISLTDEQWSTFKKNMPAIENAVKKMESRV	soluble
MEKFDVIIIGAGPAGLFAAYELVERSNMKVLIIDEGGDVDQRVCPMDQLGYCIGCKPCHIMSGVGGAGGLSDGTVNLRPDIGGDLTELTNDENYSWQLVWEVDQILLKHGAPRNLYKGDPDQIRYWERKAAQAGVKFIPIIQRHIGSDNTPRVIKSIKQYLESKGVKFLLWTKALEFNKGWVKVRRGKDVFTIEGKYIIVAPGRGGAEWFHEIAQKIGLKARHGPIDVGVRVEVPAIIMEPITSINHDPKFHIYTDTYDDFVRTFCTNPYGFVVEERYDGYVGVNGHSMRNKKSNNTNFAFLTRIELTEPVEDTTAYGRSIAQLATTIGGGRPILQRLGDLRRGRRSTWSRIRKSNVEPTLKHVTPGDIAMALPHRVVTNIIEGLEKLDKVIPGVASDHTLLYAPEIKYYAMKVEVNELLETSIENVFAAGDGAGLSRDIVNAAATGIMAARGILVKEGLYNLKDFKKPGNWKEKIESLEPEELEHHHHHH	soluble
MEKFIDENVAFGRMPYEDEIDELVEKFDAFVVLVEDFELVYDIEELKKKVDVLHSPIPDFTAPSLSQLYKIVKWIEEKVKEGKKVYIHCYGGSGRSGTVAVAWLMYSQGLSLREGLRRVRLLKPSAVETEDQLEVLREFERFLDTR	soluble
MEKHDICPSISEYSYHEILGFYINPVENHLASKNMLIDLDERSVEGLLIFIAECNLGIENRVMEHMNKGIRKCKDHRFT	not soluble
MEKIRQPTHAGSWYTDNPTKLSSDLEEWLNATGLTKSPDVRGVIAPHAGYSYSGRAAAYAFANIDPTNISRIFLLGPSHHFYTPKCALSTATVYKTPIGNLPVDVEMIKEIRAMGKFGMMDLRVDEAEHSMEMHLPYLAKVFEGNNVKVVPILVGAVSPENEAMYGELLAKYVDDPKNFFSVSSDFCHWGSRFNYMHYDNTHGAIHKSIEALDKKGMDIIETGDPDAFKKYLLEFENTICGRHPISIFLHMLKHSSSKIKINFLRYEQSSQCQTMRDSSVSYASAAAKLET	not soluble
MEKKKVTIPQVCHGHSRPVVDLFYSPITPDGFFLISASKDSHPMLRNGETGDWIGTFEGHKGAVWSSCLDNNALRAASASADFSAKLWDALTGDVLHSFEHKHIVRACAFSEDTKSLLTGGFEKILRVFDMNRLDAPPTEVDKSPGSIRTLTWLHSDQTILSSCTDIGGVRLWDVRSGKIVQTLETKSPVTSAEVSQDGRYITTADGSTVKFWDANHFGLVKSYDMPCNIESASLEPKSGEKFVAGGEDMWVRVFDFYTGEEIGCNKGHHGPVHCVRFTPTGLSYASGSEDGTIRIWQTTPANPEENETSSRRVKHSVDEVSKKIEGFHINKEGKTAEKPSDT	soluble
MEKLTMQEEEVMIYIWELESCYVKDIVAKFEQPTPPYTTVASIVKNLERKKYVKAQRVGNTYLYTPSIKESEYKRSFMSGVVRNYFENSYKEMVSFFAKDQKISTNDLKEIIDMIEKGQEK	not soluble
MEKMKNLDGKVALVTGASRGIGRAIAMRLANDGALVAIHYGRNKQAADETIREIESNEGKAFLIEADLNSIDGVKKLVEQLKNELQIRVGTSEIDILVNNAGIGTQGTIENTTEEIFDEIMAVNIKAPFFLIQQTLPLLRAEGRVINISSAEVRLGFTGSIAYGLSKGALNTMTLPLAKHLGERGITVNTIMPGYTKTDINAKLLDDPEIRNFAANSSVFGRIGQVEDIADAVAFLAASDSRWVTGQIIDVSGGFCL	not soluble
MEKNYYVCTGCGMLCDDIEVDVENNKINKVYTACRIGVAHMKDGKESAAFLVDNKPVDETTAISEAATILKNAKNPLIFGLGTSSNEAQKLAIELAKKTSATLDDASSFSLGEVIEALLNNKTKVCTLDDVRNKADVSIFWGTDPSDSHPRQLSKYAYFPRGTEKQRGWEEERTAICIDVRKSHTAKICGNYFFQIPPGGDAEFIDALIAALAGKLPKTSYNFPPKRILELANILKGAKFGVVFAGRGLVYSLDNLEPLIRLMNALNEKANFHLVPMIRQYNTRGFNENLFKETGYVNSVKFEDGTVKHGPEYSVVESLKEKTVDAALIIGSDPFSILPRSIAKNLLEVPVIVLDPCETLTSRNAKVYISTAIDGVESGGSAIRMDGVKVDFKPAVETKRPSDETVLKKIMEAL	not soluble
MEKQNFVVLKNICKRFGSNTVIGNLDLEIKKGSLVTLLGPSGCGKTTVLRLVAGLEKPTSGQIFIDGEDVTERSIQQRDICMVFQSYALFPHMSLYENVAYGLKMLKLPSEEVRQRVDEALKIVDLEGMGERYVDQISGGQQQRVALARALVLKPKVLLFDEPLSNLDANLRRSMRETIRELQQRFDITSLYVTHDQAEAFAVSDTVIVMKQGDIMQIGTPQELYKAPKSMFMANFMGEANMFQGHFDGQQIHINGYAIDADLEVTRDKPNGEYQIGVRPEAITLHTQGSESQACQILKSAYMGSMYEVTVKWHDQELLLQLNSAQFNHTLTQHAYVVFNPRGLFLLPYAE	not soluble
MEKSIKIGFIGLGAMGKPMAINLLKEGVTVYAFDLMEANVAAVVAQGAQACENNQKVAAASDIIFTSLPNAGIVETVMNGPGGVLSACKAGTVIVDMSSVSPSSTLKMAKVAAEKGIDYVDAPVSGGTKGAEAGTLTIMVGASEAVFEKIQPVLSVIGKDIYHVGDTGAGDAVKIVNNLLLGCNMASLAEALVLGVKCGLKPETMQEIIGKSSGRSYAMEAKMEKFIMSGDFAGGFAMDLQHKDLGLALEAGKEGNVPLPMTAMATQIFEGGRAMGLGREDMSAVIKVWEQMTGVSVSGGQ	soluble
MEKTVNPFRIGIAPISWVNDDIPGLGDHYTQDQVLSEMAELGYVATEMGRLFSQDPPSLRAKLNQYGIELASKFIGVLFSDRSRLEEELETFQSWAEYLHDMGCKYAIVCEMGGSMHWDPRRAPEEKTIQRLTDSEWESLVDGLHRAAHICQELGMKLVYHFHAGTVVETAEEIDRLMELTDPNLVHLLYDTGHALYGGYDPVELLHRYADRIQYVHLKDIRRDVLEQVRREQLDFRTAVLRGMFTVPGDGCIDFVPIFSKLIEMGYNGWIIVEAEQDPAVAHPYTYAKMAKEYIDRLVHHLLAAQKR	not soluble
MEKYQVKFMPDQQVIEVEKGTSLLKAASQAGIFIKSSCGGKGTCGACKVTVISGEAKSERTGNLSPEQLSRGVRLSCHTFVEGDLTVEVPPESRLQAHQVLLENANAALLTETSKDLLTYYGYHPLARKVNIRCSEPTLTDNAGDWARLSLELKRVLQSDKPLTIPLSVLQTLPETLRQAHWDLSVILTDLELGYTVLHVEPANDRPCYGLAIDVGTTTVVVYLVDLDSGEIVDKQGSYNKQAQFGDDVISRIVYAVDSKENMAEIQKAVVDTVNALIDGILERQSLTSQDIASAVIAGNTTMSQLFLGINPRYIRLEPYIPTVNSTPAVSAREIGLRLLPEALIHTYPSVASYVGGDIVSGALATDMANSDEIILFIDIGTNGEIVLGNKDWLVSCACSAGPCFEGGGILFGMRAMPGAIERVDIDPESLDVKLKVVGKIAPVGICGSGLVDCLAKLRKAGIIDRAGNFQLEHPSQSARIRATEDDKEFVLAWAHQAGGDKDIVISENDVKNLIRAKGAIYAGIRSLLQTVALEIDMIERIVIGGGFGNYLNVHDSVEIGLLPDLPQEKFEFIGNSSVKGARLALLSQKAWNEAADLARKMTYIELSIGTTFMDEFVSALFLPHTDLSLFPSVEGTFLEHHHHHH	soluble
MELARPRSNFQSDLDFCPDCGSVLPLPGIQDTVICSRCGFSIDVRDCEGKVVKTSVVFNKLGATIPLSVDEGPELQGPVIDRRCPRCGHEGMAYHTRQMRSADEGQTVFYTCINCKFQEKEDS	soluble
MELHIWPSDFGLPTIDVVSLQFLACSKMCASPVRVIQSTRPWRSPSGELPMVAQTEGEAKPVTDFEKFVDILKKCGQDVVIDADLTTIEKAQLDAFSCYLHHNLYPAVMHTFWTDELNYNTVTQYWYASHLHFPYNLYYLEKRRKKALRLLAGKNDTEILKEAFMALNTLSTKLGDNKFFCGNKPTSLDALVFGYLAPLLRVPLPNDRLQVQLSACPNLVRFVETVSSIYLPLGEDELKRQQANRKMWQSRISKAKADKEAAKTTEEASESLPEEPPMRDAILFTLGALTLSLVFAIHTGLIQVSVEEEISE	not soluble
MELISVTKDNLEQEHICCAISNNKDCQVLSKKNWLNEQFEDGLVFLKGNVRGKCFIEYMPAEKAWAPVEADGYMYINCLWVSGQFKGQGYSNLLLEECIRDSREKGRLGLVVLTSKKKMPYLSDPKFLGYKGFIRADSAEPYFELFYLPFEADAPKPQFKEQVRQPRTEENGFVLYYTRQCPFTAKYVPLIESAAEENNIPFKAVLFKTSGEARNAPAPFTTYSLFYNGRFITNEILSEKRFEKILEAEGLG	not soluble
